The target of this experiment is human CXCR4 receptor (human). As to the kind of experiment: cell-based or functional assay.

Chain of stromal cell derived factor-1α (SDF-1α) (ligand) (chain): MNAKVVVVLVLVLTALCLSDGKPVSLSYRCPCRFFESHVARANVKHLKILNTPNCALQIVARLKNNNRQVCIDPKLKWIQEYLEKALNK

On to “stromal cell derived factor-1α (SDF-1α) (ligand)”, for which the EC50 of HUVEC migration (Transwell chemotaxis) fell in the range of 10 to 20 nM, the elevation of [Ca+2]i in HUVEC (fura-2 fluorescence); concentration of maximal response came out at 100 nM and the percent migration of input EC (Transwell chemotaxis) was determined as 40%.

Source of the values: patent publication US20020107196A1.
